{"source": "paper PMC5458677", "molecular_target": "His-tagged full-length Anisakis simplex macrophage migration inhibitory factor (As-MIF, 1-121) (Anisakis simplex)", "test": "SPR", "data": [{"substance": "His-tagged human JAB1 (1-257) (from UniProt Q92905 1-257) (domain or fragment)", "values": [{"measurement": "Kd", "value": 16.6, "unit": "nM"}]}]}
